The text below walks through data of US20110312897.

The target of data set [1] is T1, H3 15-31 peptide, K18ac+K23ac.
T1 chain: APRKQLATKAARKSAPA

The target in data set [2] is T2, H3 15-31 peptide, K23 acetyl.
T2 chain: APRKQLATKAARKSAPA

Data set [3] addresses T3, H3 15-31 peptide, K18 acetyl.
T3 chain: APRKQLATKAARKSAPA

Another data set addresses T4, H3 15-31 peptide, K27me2.
T4 chain: APRKQLATKAARKSAPA

Data set [4] deals with rH3 pan-acetylated with acetic anhydride.
Data set [5] addresses C-terminally 6xHIS tagged, full-length recombinant histone H3.

B1: recombinant mouse Cathepsin L (R&D Systems, # 1515-CY-010) (protein)
chain: TPKFDQTFSAEWHQWKSTHRRLYGTNEEEWRRAIWEKNMRMIQLHNGEYSNGQHGFSMEMNAFGDMTNEEFRQVVNGYRHQKHKKGRLFQEPLMLKIPKSVDWREKGCVTPVKNQGQCGSCWAFSASGCLEGQMFLKTGKLISLSEQNLVDCSHAQGNQGCNGGLMDFAFQYIKENGGLDSEESYPYEAKDGSCKYRAEFAVANDTGFVDIPQQEKALMKAVATVGPISVAMDASHPSLQFYSSGIYYEPNCSSKNLDHGVLLVGYGYEGTDSNKNKYWLVKNSWGSEWGMEGYIKIAKDRDNHCGLATAASYPVVN
Regarding B1, the “ELISA with the H3cs.1 antibody of the cleavage product” value in data set [1] was “the K23ac peptide shows very little cleavage activity at H3cs.1, both alone (green) and in combination with K18ac (black)”; in data set [2] it was “the K23ac peptide shows very little cleavage activity at H3cs.1, both alone (green) and in combination with K18ac (black)”. Moreover, the “H3 cleavage assay, immunoblot (substrate 2 against unmodified substrate 1)” value with rH3-HIS+K27me2 is “K27me2 increases H3 cleavage”. Also, the “ELISA with the H3cs.1 antibody of the cleavage product, against the unmodified H3 15-31 peptide” value is “acetylation at K18 (blue) also increases this activity” in data set [3] and “K27me2 (magenta) strongly increases the ability of Cathepsin L to cleave at H3cs.1 as compared to the matched unmodified H3 15-31 peptide” with H3 15-31 peptide, K27me2. Besides, the “H3 cleavage assay, immunoblot (substrate 3 against unmodified substrate 1)” value in data set [4] is “the acetylation of lysine residues greatly reduced cleavage of H3 by rCathepsin L at both pH 7.5 and 5.5”. Moreover, the “H3 cleavage assay (immunoblot with HIS-HRP and H3.cs1 antibodies; mass spectrometry)” value in data set [5] was “recombinant mouse Cathepsin L was able to cleave recombinant histone H3 at both pH 5.5 and pH 7.4”. Further, in data set [5], the “H3 cleavage assay with pre-activated enzyme, immunoblot with HIS and H3.cs1 antibodies” value is “pre-activated Cathepsin L cleaves rH3-HIS robustly and produces a pattern that is similar to that observed in vivo”.
